# Experimental data as given in patent US20150361464A1, “METHODS, REAGENTS AND CELLS FOR BIOSYNTHESIZING COMPOUNDS” (INVISTA North America S.á r.l., priority 2014, published 2015).
# Assay: ω-transaminase enzyme activity assay, forward direction (glutarate semialdehyde to 5-aminopentanoate), cell free extract
# Format: biochemical
# Method: A nucleotide sequence encoding an N-terminal His-tag was added to the genes from Chromobacterium violaceum and Rhodobacter sphaeroides encoding the ω-transaminases of SEQ ID NOs: 8 and 10 respectively (see FIG. 10) such that N-terminal HIS tagged ω-transaminases could be produced. Each of the resulting modified genes was cloned into a pET21a expression vector under control of the T7 promoter and each expression vector was transformed into a BL21[DE3] E. coli host. The resulting recombinant E. coli strains were cultivated at 37° C. in a 250 mL shake flask culture containing 50 mL LB media and antibiotic selection pressure, with shaking at 230 rpm. Each culture was induced overnight at 16° C. using 1 mM IPTG.
# The pellet from each induced shake flask culture was harvested via centrifugation. Each pellet was resuspended and lysed via sonication. The cell debris was separated from the supernatant via centrifugation and the cell free extract was used immediately in enzyme activity assays.
# Enzyme activity in the forward direction (i.e., glutarate semialdehyde to 5-aminopentanoate) was confirmed for the transaminase of SEQ ID NO: 10. Enzyme activity assays were performed in a buffer composed of a final concentration of 50 mM HEPES buffer (pH=7.5), 10 mM glutarate semialdehyde, 10 mM L-alanine and 100 μM pyridoxyl 5′ phosphate. Each enzyme activity assay reaction was initiated by adding a cell free extract of the ω-transaminase gene product or the empty vector control to the assay buffer containing the glutarate semialdehyde and incubated at 25° C. for 4 hours, with shaking at 250 rpm. The formation of pyruvate was quantified via RP-HPLC.
molecule,measurement,setting,value
"SEQ ID NO: 10: Pseudomonas syringae ω-transaminase (b222 says Rhodobacter sphaeroides), N-terminal HIS tagged, cell free extract (protein, listed as Pseudomonas syringae, N-terminal His tag) MSANNPQTLEWQALSSEHHLAPFSDYKQLKEKGPRIITRAEGVYLWDSEGNKILDGMSGLWCVAIGYGREELADAASKQMRELPYYNLFFQTAHPPVLELAKAISDIAPEGMNHVFFTGSGSEGNDTMLRMVRHYWALKGQPNKKTIISRVNGYHGSTVAGASLGGMTYMHEQGDLPIPGVVHIPQPYWFGEGGDMTPDEFGIWAAEQLEKKILELGVENVGAFIAEPIQGAGGVIVPPDSYWPKIKEILSRYDILFAADEVICGFGRTSEWFGSDFYGLRPDMMTIAKGLTSGYVPMGGLIVRDEIVAVLNEGGDFNHGFTYSGHPVAAAVALENIRILREEKIVERVRSETAPYLQKRLRELSDHPLVGEVRGVGLLGAIELVKDKTTRERYTDKGAGMICRTFCFDNGLIMRAVGDTMIIAPPLVISFAQIDELVEKARTCLDLTLAVLQG","acceptance of glutarate semialdehyde as substrate (formation of pyruvate from L-alanine, RP-HPLC)","10 mM glutarate semialdehyde, 10 mM L-alanine, pH 7.5, 25° C., 4 hours, against the empty vector control, FIG. 16",accepted glutarate semialdehyde as substrate
same,"acceptance of glutarate semialdehyde as substrate and synthesis of 5-aminopentanoate, concluded from reversibility of the ω-transaminase activity",conclusion from reverse and forward direction assays,accepted glutarate semialdehyde as substrate and synthesized 5-aminopentanoate
